Measurements reported in PMC9207296, “Photoacoustic imaging reveals mechanisms of rapid-acting insulin formulations dynamics at the injection site” (Molecular Metabolism, 2022).

How the values were obtained:
[1] = Photobleaching test of dye-labeled lispro in expired mouse ear (OR-PAM); type: physicochemical; settings: 400 μM in Humalog formulation in expired mouse ear; 21 imaging sessions over 3 hours; 780 nm
Procedure: Before performing live animal experiments, we injected the dye-labeled lispro formulation in the ear of an expired mouse to study the progression of photoacoustic signals to assess photobleaching.
[picture] Figure S1: Photobleaching test of Cy7.5 dye-labeled lispro (400 μM) in Humalog formulation injected in a dead mouse ear. Over the course of 3 hours, 21 imaging sessions were performed and no decrease of photoacoustic signals were found. Scale bar = 500 μm.

[2] = OR-PAM quantification and compartmental kinetic modelling of injection-site absorption in mouse ear; type: in vivo; settings: sulfo-cy7.5 dye without lispro, n = 3, result in words
Procedure: We used 34 gauge needles (207434, Hamilton) with microliter syringes to inject insulin volumes from 0.06 μL to 0.10 μL in the mouse ear. To perform the injection, the syringes were fitted onto a syringe dispenser (PB600, Hamilton), which enabled rapid and controlled injection. The needle was inserted in the mouse ear at an oblique angle (≤45°) and then the desired volume of the dye-labeled insulin lispro formulation was injected using the syringe dispenser. To perform 0.06 μL injections, a 1 μL syringe (80100, Hamilton) was used through which a minimum of 0.02 μL of liquid could be dispensed. To inject 0.1 μL volume, a 5 μL (7634-01, Hamilton) syringe was used. To perform 0.06 μL injection, the 1 μL syringe was fitted with a glass coupler (55752-01, Hamilton) and a luer adaptor (55753-01, Hamilton) to connect to the 34-gauge needle. The 5 μL syringe could be directly connected to the needle.
Mouse experiments were approved as per the IACUC regulations at Caltech. Hsd:Athymic Nude-Fox1^nu mice aged 6–10 weeks (Envigo) were used in all the photoacoustic experiments. The mouse body temperature was maintained at 37 °C during imaging. […]
Since the time required for taking each image is around 220 s, we consider the mid-point of time at which the imaging was started and ended as the imaging time-point. […] All the p values were calculated using unpaired two-sample t-tests. […]

Substance | photostability (photoacoustic signal) [1] | injection-site absorption of dye alone, Lyumjev versus Humalog excipient formulation [2]
sulfo-cy7.5 insulin lispro: insulin lispro acylated at the B-chain lysine B28 epsilon amino group with sulfo-cyanine7.5 NHS ester | no decrease in photoacoustic signals after 21 imaging sessions | 
sulfo-cyanine7.5 [sulfo-cy7.5 dye] |  | absorbed at a faster rate in the Lyumjev formulation
